According to article PMC2588538, “Structure of Reovirus σ1 in Complex with Its Receptor Junctional Adhesion Molecule-A” (PLoS Pathogens, 2008):

B1: σ1 of reovirus strain rsT3D-σ1T249I (parent), on purified virions [mammalian orthoreovirus, strain type 3 Dearing GST-JAM-A ectodomain fusion protein [not stated] (parent)
chain 1: MDPRLREEVVRLIIALTSDNGASLSKGLESRVSALEKTSQIHSDTILRITQGLDDANKRIIALEQSRDDLVASVSDAQLAISRLESSIGALQTVVNGLDSSVTQLGARVGQLETGLAELRVDHDNLVARVDTAERNIGSLTTELSTLTLRVTSIQADFESRISTLERTAVTSAGAPLSIRNNRMTMGLNDGLTLSGNNLAIRLPGNTGLNIQNGGLQFRFNTDQFQIVNNNLTLKTTVFDSINSRIGAIEQSYVASAVTPLRLNSSTKVLDMLIDSSTLEINSSGQLTVRSTSPNLRYPIADVSGGIGMSPNYRFRQSMWIGIVSYSGSGLNWRVQVNSDIFIVDDYIHICLPAFDGFSIADGGDLSLNFVTGLLPPLLTGDTEPAFHNDVVTYGAQTVAIGLSSGGAPQYMSKNLWVEQWQDGVLRLRVEGGGSITHSNSKWPAMTVSYPRSFT
chain 2: SVTVHSSEPEVRIPENNPVKLSCAYSGFSSPRVEWKFDQGDTTRLVCYNNKITASYEDRVTFLPTGITFKSVTREDTGTYTCMVSEEGGNSYGEVKVKLIVLVPPSKPTVNIPSSATIGNRAVLTCSEQDGSPPSEYTWFKDGIVMPTNPKSTRAFSNSSYVLNPTTGELVFDPLSASDTGEYSCEARNGYGTPMTSNAVRMEAVERNVGV

Variants of: B1
Assay: SPR
Details: with GST-JAM-A ectodomain fusion protein, GST-JAM-A captured on biosensor surface, read off a plot
[1] = 6×1012 (green) particles/ml virus, parent: 62
[2] = 8×1012 (orange) particles/ml virus, parent: 98
[3] = 1013 (red) particles/ml virus, parent: 205

chain 1 G381A
response [1]: 17 RU | response [2]: 28 RU | response [3]: 36 RU

chain 1 E384A
response [1]: 140 RU | response [2]: 280 RU | response [3]: 460 RU
